Assays:
Experiment in all cases: Kinase Profiling Assay
Format in all cases: biochemical
Conditions in all cases: 100 μM
BRK (h) = BRK (h) (Homo sapiens, UniProt Q13882)
Outline: (§1)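 Radiometric filter-binding format: cationic substrate takes up labeled phosphate from ATP unless the inhibitor peptide blocks the kinase. Substrate bound to an anionic filter, scintillation-counted, normalized to 100% activity control. Duplicates; part of a 266-kinase selectivity panel for MK2 peptides.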

BrSK2 (h) = molecular target: T1, BrSK2 (h) (Homo sapiens, UniProt Q8IWQ3)
T1 sequence (Q8IWQ3 1-736): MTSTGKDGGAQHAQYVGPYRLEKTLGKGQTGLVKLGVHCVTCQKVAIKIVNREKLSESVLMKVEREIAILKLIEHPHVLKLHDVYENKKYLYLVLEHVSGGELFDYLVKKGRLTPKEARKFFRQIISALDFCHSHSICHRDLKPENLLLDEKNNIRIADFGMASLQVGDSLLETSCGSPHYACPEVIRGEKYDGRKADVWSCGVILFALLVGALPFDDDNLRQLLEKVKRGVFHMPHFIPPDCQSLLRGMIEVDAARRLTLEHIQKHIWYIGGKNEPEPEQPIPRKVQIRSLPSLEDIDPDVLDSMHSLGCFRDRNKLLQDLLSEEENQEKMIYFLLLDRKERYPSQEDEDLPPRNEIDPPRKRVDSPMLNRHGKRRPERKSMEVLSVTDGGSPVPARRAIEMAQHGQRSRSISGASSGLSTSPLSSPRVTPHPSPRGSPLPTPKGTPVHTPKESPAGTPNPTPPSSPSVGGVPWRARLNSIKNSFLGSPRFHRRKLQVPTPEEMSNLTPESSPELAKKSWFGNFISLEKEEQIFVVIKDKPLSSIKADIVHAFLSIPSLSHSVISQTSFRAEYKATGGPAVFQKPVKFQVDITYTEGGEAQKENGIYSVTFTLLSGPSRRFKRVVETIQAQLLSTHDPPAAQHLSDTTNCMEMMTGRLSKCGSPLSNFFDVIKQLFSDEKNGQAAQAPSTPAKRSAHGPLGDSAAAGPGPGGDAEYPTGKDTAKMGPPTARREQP
Outline: as §1

EGFR(L861Q) (h) = molecular target: T2, EGFR(L861Q) (h) (Homo sapiens, UniProt P00533, L861Q)
T2 construct: purchased Millipore
Outline: as §1

EphA3 (h) = molecular target: T3, EphA3 (h) (Homo sapiens, UniProt P29320)
T3 construct: purchased Millipore
T3 sequence (P29320 21-983): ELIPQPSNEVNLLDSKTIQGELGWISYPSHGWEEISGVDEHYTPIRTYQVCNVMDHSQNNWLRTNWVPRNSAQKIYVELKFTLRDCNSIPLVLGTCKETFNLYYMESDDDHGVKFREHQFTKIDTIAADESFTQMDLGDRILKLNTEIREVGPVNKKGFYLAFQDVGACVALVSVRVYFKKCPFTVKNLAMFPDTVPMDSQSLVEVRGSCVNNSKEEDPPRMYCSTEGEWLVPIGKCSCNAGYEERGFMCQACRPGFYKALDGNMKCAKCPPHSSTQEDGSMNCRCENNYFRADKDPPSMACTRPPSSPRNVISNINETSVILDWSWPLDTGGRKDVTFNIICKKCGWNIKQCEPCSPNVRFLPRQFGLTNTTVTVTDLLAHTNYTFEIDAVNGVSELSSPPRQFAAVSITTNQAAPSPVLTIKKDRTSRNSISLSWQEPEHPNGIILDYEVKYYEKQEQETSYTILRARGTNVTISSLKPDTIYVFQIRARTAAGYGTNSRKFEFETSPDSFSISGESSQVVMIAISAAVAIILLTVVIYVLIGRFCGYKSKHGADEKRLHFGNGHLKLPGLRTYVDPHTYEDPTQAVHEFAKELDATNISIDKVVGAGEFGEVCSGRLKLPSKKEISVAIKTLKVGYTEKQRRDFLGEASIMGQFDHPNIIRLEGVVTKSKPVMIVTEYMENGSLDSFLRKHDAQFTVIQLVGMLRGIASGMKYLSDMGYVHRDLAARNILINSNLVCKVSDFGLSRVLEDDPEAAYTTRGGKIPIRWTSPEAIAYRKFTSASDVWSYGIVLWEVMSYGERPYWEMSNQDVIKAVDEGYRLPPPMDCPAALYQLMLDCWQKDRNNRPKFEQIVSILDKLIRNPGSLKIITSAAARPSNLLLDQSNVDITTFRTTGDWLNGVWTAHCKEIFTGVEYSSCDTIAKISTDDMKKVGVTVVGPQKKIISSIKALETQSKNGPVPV
Outline: as §1

Fer (h) = Fer (h) (Homo sapiens, UniProt P16591)
Sequence of Fer (h) (P16591 whole entry): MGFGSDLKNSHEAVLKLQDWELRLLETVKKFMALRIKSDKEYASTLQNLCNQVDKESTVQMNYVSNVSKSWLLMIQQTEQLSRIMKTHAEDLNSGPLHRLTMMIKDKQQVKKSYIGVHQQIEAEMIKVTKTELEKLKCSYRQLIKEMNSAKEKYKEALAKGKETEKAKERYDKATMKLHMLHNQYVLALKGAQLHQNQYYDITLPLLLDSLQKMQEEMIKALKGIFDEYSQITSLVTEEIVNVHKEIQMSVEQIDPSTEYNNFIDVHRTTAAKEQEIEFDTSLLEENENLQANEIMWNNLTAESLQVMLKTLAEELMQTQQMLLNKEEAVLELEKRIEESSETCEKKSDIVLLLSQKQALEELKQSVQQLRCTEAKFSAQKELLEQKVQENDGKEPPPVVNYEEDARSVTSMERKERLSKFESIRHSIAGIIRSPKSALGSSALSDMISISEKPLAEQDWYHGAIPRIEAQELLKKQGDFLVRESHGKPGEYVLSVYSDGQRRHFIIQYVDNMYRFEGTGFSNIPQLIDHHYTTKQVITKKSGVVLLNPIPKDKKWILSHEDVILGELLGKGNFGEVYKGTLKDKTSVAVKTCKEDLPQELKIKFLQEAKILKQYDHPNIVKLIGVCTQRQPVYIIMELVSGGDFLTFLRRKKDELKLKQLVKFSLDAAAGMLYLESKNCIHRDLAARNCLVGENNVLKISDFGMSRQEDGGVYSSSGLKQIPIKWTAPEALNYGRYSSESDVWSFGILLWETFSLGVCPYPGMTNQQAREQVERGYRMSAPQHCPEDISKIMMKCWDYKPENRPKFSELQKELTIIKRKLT
Outline: as §1

RIPK2 (h) = RIPK2 (h) (Homo sapiens, UniProt O43353)
Sequence of RIPK2 (h) (O43353 whole entry): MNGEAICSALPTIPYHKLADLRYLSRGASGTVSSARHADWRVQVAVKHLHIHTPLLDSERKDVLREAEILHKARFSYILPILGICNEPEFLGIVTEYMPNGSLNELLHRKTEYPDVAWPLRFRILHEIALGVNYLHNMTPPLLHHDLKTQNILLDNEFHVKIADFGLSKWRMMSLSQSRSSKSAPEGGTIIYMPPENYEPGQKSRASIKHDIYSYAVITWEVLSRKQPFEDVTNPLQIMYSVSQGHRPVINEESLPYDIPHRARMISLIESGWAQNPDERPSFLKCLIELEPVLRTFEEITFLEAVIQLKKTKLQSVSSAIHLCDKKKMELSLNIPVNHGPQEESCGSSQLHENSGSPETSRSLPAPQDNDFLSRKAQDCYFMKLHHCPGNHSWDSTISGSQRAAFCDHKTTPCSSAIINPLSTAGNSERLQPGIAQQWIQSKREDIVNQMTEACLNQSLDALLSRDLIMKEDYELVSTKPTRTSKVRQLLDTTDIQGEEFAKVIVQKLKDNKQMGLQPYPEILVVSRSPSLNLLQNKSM
Outline: as §1

SAPK4 (h) = molecular target: T4, SAPK4 (h) (Homo sapiens, UniProt O15264)
T4 sequence (O15264 1-365): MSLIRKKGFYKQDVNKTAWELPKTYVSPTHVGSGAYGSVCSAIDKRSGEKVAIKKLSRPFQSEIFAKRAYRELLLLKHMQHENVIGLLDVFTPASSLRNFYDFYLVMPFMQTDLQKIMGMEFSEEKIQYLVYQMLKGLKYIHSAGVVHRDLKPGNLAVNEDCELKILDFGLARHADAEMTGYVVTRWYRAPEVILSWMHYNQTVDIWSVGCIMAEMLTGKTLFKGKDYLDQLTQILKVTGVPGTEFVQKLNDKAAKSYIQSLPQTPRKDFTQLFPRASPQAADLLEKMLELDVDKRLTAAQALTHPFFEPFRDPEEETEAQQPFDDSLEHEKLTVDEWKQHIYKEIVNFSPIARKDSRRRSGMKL
Outline: as §1

STK33 (h) = STK33 (h) (Homo sapiens, UniProt Q9BYT3)
Sequence of STK33 (h) (Q9BYT3 whole entry): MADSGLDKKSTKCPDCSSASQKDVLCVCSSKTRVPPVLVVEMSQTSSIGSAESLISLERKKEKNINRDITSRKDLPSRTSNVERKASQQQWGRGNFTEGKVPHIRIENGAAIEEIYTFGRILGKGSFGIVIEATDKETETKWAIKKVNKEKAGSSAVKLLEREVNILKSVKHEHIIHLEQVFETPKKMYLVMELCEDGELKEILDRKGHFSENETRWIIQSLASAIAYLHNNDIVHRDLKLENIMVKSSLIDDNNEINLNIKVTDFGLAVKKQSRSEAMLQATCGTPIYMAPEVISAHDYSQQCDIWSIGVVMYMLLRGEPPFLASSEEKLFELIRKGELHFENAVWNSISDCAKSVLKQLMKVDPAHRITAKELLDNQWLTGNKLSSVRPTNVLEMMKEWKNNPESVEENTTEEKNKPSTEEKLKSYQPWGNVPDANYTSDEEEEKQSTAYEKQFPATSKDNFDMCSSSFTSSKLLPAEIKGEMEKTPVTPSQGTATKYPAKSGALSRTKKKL
Outline: as §1

Src(1-530) (h) = molecular target: T5, Src(1-530) (h) (Homo sapiens, UniProt P12931)
T5 construct: Src(1-530) (h)
Outline: as §1

WNK2 (h) = WNK2 (h) (Homo sapiens, UniProt Q9Y3S1)
Sequence of WNK2 (h) (Q9Y3S1 whole entry): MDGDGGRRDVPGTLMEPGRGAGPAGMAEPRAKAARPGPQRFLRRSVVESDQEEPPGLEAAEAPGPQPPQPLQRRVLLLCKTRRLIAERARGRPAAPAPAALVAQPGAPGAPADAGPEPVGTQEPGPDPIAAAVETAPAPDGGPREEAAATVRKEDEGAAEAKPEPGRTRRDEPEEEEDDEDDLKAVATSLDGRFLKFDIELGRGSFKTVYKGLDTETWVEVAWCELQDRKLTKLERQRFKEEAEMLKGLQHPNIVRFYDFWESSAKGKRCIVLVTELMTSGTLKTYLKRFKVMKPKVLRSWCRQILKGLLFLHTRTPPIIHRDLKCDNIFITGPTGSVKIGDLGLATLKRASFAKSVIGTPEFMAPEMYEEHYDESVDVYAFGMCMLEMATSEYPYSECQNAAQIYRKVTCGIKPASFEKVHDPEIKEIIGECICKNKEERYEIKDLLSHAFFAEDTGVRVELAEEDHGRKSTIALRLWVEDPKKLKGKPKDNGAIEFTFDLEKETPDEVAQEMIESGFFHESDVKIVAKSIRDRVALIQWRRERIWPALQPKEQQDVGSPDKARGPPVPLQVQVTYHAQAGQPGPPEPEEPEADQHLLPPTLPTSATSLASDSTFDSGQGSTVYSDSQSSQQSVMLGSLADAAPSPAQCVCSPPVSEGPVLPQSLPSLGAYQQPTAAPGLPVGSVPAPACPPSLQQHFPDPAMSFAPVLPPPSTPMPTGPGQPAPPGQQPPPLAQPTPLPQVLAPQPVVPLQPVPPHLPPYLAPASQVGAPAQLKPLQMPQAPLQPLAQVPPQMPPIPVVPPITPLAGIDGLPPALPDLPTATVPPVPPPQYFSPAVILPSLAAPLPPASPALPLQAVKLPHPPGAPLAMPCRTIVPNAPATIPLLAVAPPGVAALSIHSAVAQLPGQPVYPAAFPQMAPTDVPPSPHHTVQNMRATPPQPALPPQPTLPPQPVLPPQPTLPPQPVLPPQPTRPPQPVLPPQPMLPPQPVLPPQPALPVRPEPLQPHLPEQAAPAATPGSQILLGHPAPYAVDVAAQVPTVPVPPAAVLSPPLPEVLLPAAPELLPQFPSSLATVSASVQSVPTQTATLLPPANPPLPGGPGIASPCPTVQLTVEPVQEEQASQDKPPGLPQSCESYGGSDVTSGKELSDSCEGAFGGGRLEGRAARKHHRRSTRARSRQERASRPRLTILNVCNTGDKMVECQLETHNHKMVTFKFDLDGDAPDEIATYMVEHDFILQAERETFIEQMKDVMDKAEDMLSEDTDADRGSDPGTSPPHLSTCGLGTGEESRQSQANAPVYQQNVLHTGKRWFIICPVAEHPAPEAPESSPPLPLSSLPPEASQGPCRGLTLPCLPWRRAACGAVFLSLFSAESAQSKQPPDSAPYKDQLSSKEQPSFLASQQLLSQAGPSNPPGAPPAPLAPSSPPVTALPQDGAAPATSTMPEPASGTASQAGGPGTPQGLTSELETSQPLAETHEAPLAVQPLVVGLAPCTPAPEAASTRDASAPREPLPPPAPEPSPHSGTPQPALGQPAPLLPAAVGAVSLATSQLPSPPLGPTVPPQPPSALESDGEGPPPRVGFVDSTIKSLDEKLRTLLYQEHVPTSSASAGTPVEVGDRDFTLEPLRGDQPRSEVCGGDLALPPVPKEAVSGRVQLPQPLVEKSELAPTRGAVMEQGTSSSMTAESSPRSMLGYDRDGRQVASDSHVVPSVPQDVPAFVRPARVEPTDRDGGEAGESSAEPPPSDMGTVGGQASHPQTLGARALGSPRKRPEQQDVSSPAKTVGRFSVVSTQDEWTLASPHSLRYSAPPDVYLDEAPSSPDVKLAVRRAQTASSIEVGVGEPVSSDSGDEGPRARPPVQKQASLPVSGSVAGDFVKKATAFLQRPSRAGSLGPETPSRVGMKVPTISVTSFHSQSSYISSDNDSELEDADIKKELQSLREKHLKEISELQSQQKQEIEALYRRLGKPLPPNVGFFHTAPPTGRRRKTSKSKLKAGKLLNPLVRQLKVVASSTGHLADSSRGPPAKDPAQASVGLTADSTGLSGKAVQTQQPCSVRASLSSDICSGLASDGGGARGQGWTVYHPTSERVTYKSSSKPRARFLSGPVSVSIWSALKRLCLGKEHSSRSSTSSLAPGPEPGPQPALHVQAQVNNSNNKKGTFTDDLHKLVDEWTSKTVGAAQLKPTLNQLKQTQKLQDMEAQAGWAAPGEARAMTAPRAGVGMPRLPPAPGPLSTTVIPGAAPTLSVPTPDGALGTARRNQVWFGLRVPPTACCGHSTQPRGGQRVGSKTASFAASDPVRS
Outline: as §1

ZIPK (h) = ZIPK (h) (Homo sapiens, UniProt O43293)
Sequence of ZIPK (h) (O43293 whole entry): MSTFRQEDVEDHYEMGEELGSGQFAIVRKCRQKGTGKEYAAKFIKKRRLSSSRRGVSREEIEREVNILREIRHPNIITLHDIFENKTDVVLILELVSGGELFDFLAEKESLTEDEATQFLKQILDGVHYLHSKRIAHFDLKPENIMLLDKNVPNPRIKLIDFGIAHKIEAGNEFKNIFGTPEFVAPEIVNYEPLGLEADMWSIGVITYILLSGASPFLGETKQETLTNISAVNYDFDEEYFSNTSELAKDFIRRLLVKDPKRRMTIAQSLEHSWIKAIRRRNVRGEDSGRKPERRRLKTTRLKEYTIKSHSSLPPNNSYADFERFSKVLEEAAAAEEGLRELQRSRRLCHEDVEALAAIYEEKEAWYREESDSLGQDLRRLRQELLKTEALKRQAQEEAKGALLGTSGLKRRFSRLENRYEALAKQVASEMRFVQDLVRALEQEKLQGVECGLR
Outline: as §1

cKit(D816V) (h) = molecular target: T6, cKit(D816V) (h) (Homo sapiens, UniProt P10721, D816V)
T6 construct: purchased Millipore
Outline: as §1

Sequence of BRK (h) (Q13882 whole entry): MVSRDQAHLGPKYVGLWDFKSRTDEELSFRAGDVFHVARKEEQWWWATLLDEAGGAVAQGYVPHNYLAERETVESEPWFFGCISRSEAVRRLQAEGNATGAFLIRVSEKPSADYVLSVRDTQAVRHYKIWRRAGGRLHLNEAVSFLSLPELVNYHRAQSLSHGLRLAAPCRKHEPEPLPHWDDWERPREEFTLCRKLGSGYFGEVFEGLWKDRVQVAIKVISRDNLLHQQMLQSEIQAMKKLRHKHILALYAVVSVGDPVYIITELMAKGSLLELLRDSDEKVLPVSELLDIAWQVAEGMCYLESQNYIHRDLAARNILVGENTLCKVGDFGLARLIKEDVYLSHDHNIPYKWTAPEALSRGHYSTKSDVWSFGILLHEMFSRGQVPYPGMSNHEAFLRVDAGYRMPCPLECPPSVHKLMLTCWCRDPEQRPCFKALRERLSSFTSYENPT

Sequence	% activity (BRK (h))	% activity (BrSK2 (h))	% activity (EGFR(L861Q) (h))	% activity (EphA3 (h))	% activity (Fer (h))	% activity (RIPK2 (h))	% activity (SAPK4 (h))	% activity (STK33 (h))	% activity (Src(1-530) (h))	% activity (WNK2 (h))	% activity (ZIPK (h))	% activity (cKit(D816V) (h))
KAFAKLAARLYRKALARQLGVAA [MMI-0400]	18%	86%	22%	12%	108%	98%	91%	52%	19%	54%	13%	35%
YARAAARQARAKALNRQLGVA (Mammalian) [MMI-0200]	127%		74%		101%	98%		98%	75%	94%	67%	118%
HRRIKAWLKKIKALARQLGVAA (Mammalian) [MMI-0500]	41%	84%	15%	33%	196%	30%	48%	16%	21%	8%	1%	30%
FAKLAARLYRKALARQLGVAA [MMI-0300]	35%	83%	25%	6%	130%	97%	96%	45%	23%	64%	28%	60%

Reference: patent US10500249B2, “Compositions and methods for preventing or treating diseases, conditions, or processes characterized by aberrant fibroblast proliferation and extracellular matrix deposition” (MOERAE MATRIX, INC., priority 2014, dated 2019)
